Patent publication US20230331848A1 (BIOSION, published 2023)

T1: recombinant mouse PD-1-his protein (Cat#:50124-M08H, Sino Biological Inc) (mouse, UniProt Q02242 25-167)
T1 construct: Bought protein used in Biacore and indirect ELISA; not shown: his tag
T1 sequence (looked up): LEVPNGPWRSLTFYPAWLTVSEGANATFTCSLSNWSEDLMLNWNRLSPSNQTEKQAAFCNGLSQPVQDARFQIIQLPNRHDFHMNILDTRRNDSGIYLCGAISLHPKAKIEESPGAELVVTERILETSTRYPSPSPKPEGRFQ

B1: Chimeric E1A9C8A7 antibody (antibody, human IgG4 S228P, kappa, V domains shown)
VH: QVQLQQSGAEVVRPGVSVRISCKGSGYTFSDYVMHWMKQSHGESLEWIGVISTYHIPAVYNQKFKGKATMTVDKSSSTVYLELARLTSEDSAIYYCAREVYGDSYYFDVWGAGTTVTVSS
VL: DVLMTQIPLSLPVSLGDQVSISCRSSQSIVHSNGNTYLEWYLQKPGQSPKLLIYKVSNRFSGVPDRFSGSGSGTDFTLKISRVEAEDLGVYYCFQGSHVPYTFGGGTKLEIKR
notes: also called chimeric antibody E1A9C8A7
B2: humanized antibody huE1A9C8A7-V8 (antibody, human IgG4 S228P, kappa, V domains shown)
VH: QVQLVQSGAEVVKPGASVKISCKASGYTFTDYVMHWVRQAPGQSLEWMGVISTYHIPAVYNQKFKGKATMTVDTSTSTVYLELSSLRSEDTAVYYCAREVYGDSYYFDVWGQGTTVTVSS
VL: DIVMTQTPLSLPVTPGEPASISCRSSQSIVHSNGNTYLEWYLQKPGQSPQLLIYKVSNRFSGVPDRFSGSGSGTDFTLKISRVEAEDVGVYYCFQGSHVPYTFGGGTKVEIKR
notes: Human IgG4/kappa
B3: humanized antibody huE1A9C8A7-V8-3 (antibody, human IgG4 S228P, kappa, V domains shown)
VH: QVQLVQSGAEVVKPGASVKISCKASGYTFTDYVMHWVRQAPGQSLEWMGVISTYHIPAVYNQKFKGKATMTVDTSTSTVYLELSSLRSEDTAVYYCAREVYGESYYFDVWGQGTTVTVSS
VL: DIVMTQTPLSLPVTPGEPASISCRSSQSIVHSAGNTYLEWYLQKPGQSPQLLIYKVSNRFSGVPDRFSGSGSGTDFTLKISRVEAEDVGVYYCFQGSHVPYTFGGGTKVEIKR
notes: huE1A9C8A7-V8 modified in VH CDR3 (D to E) and VL CDR1 (N to A)

Experiments:
[1] = target: T2, human PD-1 expressed on GS-J2/PD-1 cells (Genscript) (human, UniProt Q15116 25-288); assay: cell-based or functional assay
[2] = target: T1, recombinant mouse PD-1-his protein …; assay: SPR (Biacore), protocol of Example 2
[3] = target: T3, recombinant human PD-1-his protein (Cat#:10377-H08H, Sino biological Inc.) (human, UniProt Q15116 25-167); assay: SPR (Biacore), protocol of Example 2
T3 construct: Bought protein used as analyte in the Biacore tests; not shown: his tag

[4] = target: T4, human PD-1-his protein prepared in-house (human, UniProt Q15116 25-167, biotin-labeled (sites not given)); assay: capture ELISA, antibody captured, biotin human PD-1-his detected
T4 construct: also called biotin labeled human PD-1-his
Experimental: Briefly, 96-well micro plates were coated with 100 μl 2 μg/ml AffiniPure Goat Anti-Mouse IgG F(ab′)₂ fragment specific (Cat#:115-005-072, Jackson lmmunoResearch) or Goat-anti-human IgG (Cat#:109-005-097, Jackson ImmunoResearch, for the positive control and negative control) in PBS overnight at 4° C. Plates were washed once with wash buffer (PBST, PBS+0.05% Tween-20) and then blocked with 200 μl/well blocking buffer (5% w/v non-fatty milk in PBST) for 2 hours at 37° C. […] After a final wash, plates were incubated with 100 μl/well TMB (Cat#:TMB-S-002, Innoreagents) at room temperature.
For the capture ELISA, 96-well plates were coated with 100 μl 2 μg/ml AffiniPure Goat Anti-Human IgG, Fcγ fragment specific (Cat#:109-005-098, Jackson Immunoresearch) instead of AffiniPure goat-anti-mouse IgG F(ab′)₂ fragment specific.

[5] = target: T5, cynomolgus PD-1-his protein (Cat#:PD1-05223, Acro biosystems Inc.) (cynomolgus, UniProt B0LAJ3 25-170); assay: indirect ELISA on coated cynomolgus PD-1-his
T5 construct: Bought protein used in Biacore and indirect ELISA; also called monkey PD-1; Cyno PD-1

[6] = target: T6, human PD-1-his protein (Cat#:PD1-H5221, Acro biosystems Inc.) (human, UniProt Q15116 25-167); assay: BLI (Octet RED96), antibody captured on AHC sensor, human PD-1-his in solution, 1:1 fit
T6 construct: not shown: his tag
Experimental: (§1) Briefly, AHC biosensors (anti-human IgG Fe capture, from ForteBio) were presoaked with 10 mM glycine (pH 1.5) for 3 seconds, and then dipped in a well with running buffer (0.5% w/v BSA in PBST) for 3 seconds, the soaking and dipping steps were repeated for three times. […] A new baseline was run for 100 seconds in another well with running buffer. Then the sensors were dipped in a well with serially diluted human PD-1-his protein (Cat#:PD1-H5221, Acro biosystems Inc., starting at 100 nM with a two-fold serial dilution) in running buffer for 120 seconds, and then immersed in a baseline well for […]. Finally, sensors were presoaked with 10 mM glycine (pH 1.5) for 30 seconds, and then were dipped in a well with running buffer for 30 seconds. The association and dissociation curves were fit to a 1:1 Langmuir binding model using ForteBio Data Analysis 8.1 evaluation software.

[7] = target: T7, in house made human PD-1-Fc protein (human, biotin-labeled (sites not given)); assay: competitive ELISA: biotin human PD-1-Fc + antibody on coated human PD-L1-Fc (competitor)
T7 construct: also called biotin-labeled human PD-1-Fc
Experimental: Briefly, 100 μl human PD-L1-Fc protein (prepared in-house with SEQ ID NO: 28) at 2 μg/mL in carbonate/bicarbonate buffer (pH 9.6) was coated on 96-well micro plates overnight at 4° C., Plates were washed with wash buffer (PBS+0.05% w/v Tween-20, PBST), and blocked with 5% w/v non-fatty milk in PBST for 2 hours at 37° C. […] After incubation at 37° C. for 40 minutes, plates were washed using wash buffer. […] Plates were washed again using wash buffer. Finally, TMB was added and the reaction was stopped using 1M H₂SO₄. The absorbance was read on a microplate reader using dual wavelength mode with 450 nm for TMB and 630 nm as the reference wavelength, then the OD (450-630) values were plotted against antibody concentrations. Data was analyzed using Graphpad Prism software and IC₅₀ values were reported.

[8] = target: T4, human PD-1-his protein prepared in-house; assay: competitive ELISA: biotin human PD-1-his + antibody on coated Pembrolizumab (competitor)
Experimental: ELISA plates were washed once with wash buffer (PBST, PBS+0.05% Tween-20) and then blocked with 200 μl/well blocking buffer (5% w/v non-fatty milk in PBST) for 2 hours at 37° C. […] After incubation at 37° C. for 40 minutes, plates were washed using wash buffer, added and incubated with 100 μl/well Peroxidase Streptavidin for 40 minutes at 37° C. Plates were washed again using wash buffer. Finally, TMB was added and the reaction was stopped using 1M H₂SO₄. The absorbance was read on a microplate reader using dual wavelength mode with 450 nm for TMB and 630 nm as the reference wavelength, and the OD (450-630) values were plotted against antibody concentrations. Data was analyzed using Graphpad Prism software and IC₅₀ values were reported.

[9] = target: T6, human PD-1-his protein (Cat#:PD1-H5221, …); assay: BLI (Octet RED96), antibody captured on AHC sensor, human PD-1-his in solution, 1:1 fit (second run)
Experimental: as §1

[10] = target: T2, human PD-1 expressed on GS-J2/PD-1 …; assay: flow cytometry on GS-J2/PD-1 cells
Experimental: In specific, the 293F-mouse PD-1 cells and GS-J2/PD-1 cells were respectively harvested from cell culture flasks, washed twice and re-suspended in PBS containing 2% v/v Fetal Bovine Serum (FACS buffer). Then, 2×10⁵ cells per well were incubated in 96 well-plates with 100 μl of the anti-PD1 antibodies or controls at various concentrations for 40 minutes on ice. […] Following an incubation of 40 minutes at 4° C. in dark, cells were washed three times and re-suspended in FACS buffer. Fluorescence was measured using a Becton Dickinson FACS Canto II-HTS equipment and plotted against antibody concentrations. Data was analyzed using GraphPad Prism software and EC₅₀ values were reported.
For the cell-based binding FACS, R-Phycoerythrin AffiniPure Goat Anti-human IgG Fcγ fragment specific (Cat#:109-115-098, Jackson ImmunoResearch) was used for the humanized antibodies, with 1:1000 dilution in FACS buffer, 100 μl/well.

[11] = target: T7, in house made human PD-1-Fc protein; assay: blocking FACS: biotin human PD-1-Fc + antibody on GS-C2/PD-L1 cells (competitor: cell-surface human PD-L1)
Experimental: GS-C2/PDL1 cells were harvested from cell culture flasks at the log phase, washed twice and re-suspended in PBS containing 2% v/v Fetal Bovine Serum (FACS buffer). GS-C2/PD-L1 cells, 0.6×10⁵ cells per welt, were incubated in 96 well-plates with 100 the antibody/PD1-Fc mixture for 40 minutes at 4° C. Cells were washed twice with FACS buffer, added with 100 R-Phycoerythrin Streptavidin (1:500 dilution in FACS buffer, Cat#:016-110-084, Jackson Immunoresearch), and incubated for 40 minutes at 4° C. in dark. Cells were washed twice and re-suspended in FACS buffer. Fluorescence was measured using a Becton Dickinson FACS Canto II-HTS equipment. Data was analyzed using Graphpad Prism software and IC₅₀ values were reported.

[12] = target: T6, human PD-1-his protein (Cat#:PD1-H5221, …); assay: BLI (Octet RED96), supernatant antibody captured on AHC sensor, human PD-1-his in solution, 1:1 fit
Experimental: as §1

[13] = target: T2, human PD-1 expressed on GS-J2/PD-1 …; assay: cell-based binding FACS on GS-J2/PD-1 cells expressing human PD-1 (MFI); unit from the axis 'Con of mAb, nM.'
[14] = target: T1, recombinant mouse PD-1-his protein …; assay: SPR (Biacore), Example 9
[15] = target: T3, recombinant human PD-1-his protein …; assay: SPR (Biacore), Example 9
[16] = target: T5, cynomolgus PD-1-his protein …; assay: SPR (Biacore), Example 9

Row | Cell-based functional assay (EC50, nM) [1] [nM] | EC50 [4] [nM] | EC50 [5] [nM] | IC50 [7] [nM] | IC50 [8] [nM] | EC50 [10] [nM] | IC50 [11] [nM] | EC50 [13] [nM] | Kd [14] [nM] | koff [14] [s⁻¹] | kon [14] [M⁻¹ s⁻¹] | Kd [15] [nM] | koff [15] [s⁻¹] | kon [15] [M⁻¹ s⁻¹] | Kd [16] [nM] | koff [16] [s⁻¹] | kon [16] [M⁻¹ s⁻¹] | also measured | Binder
1 | 7.45 | 0.21 | 0.85 | 0.38 | 0.61 | 0.67 | 0.57 |  |  |  |  |  |  |  |  |  |  | Kd [2]: 162 nM; koff [2]: 0.027 s⁻¹; kon [2]: 167000 M⁻¹ s⁻¹; Kd [3]: 1.11 nM; koff [3]: 0.000645 s⁻¹; kon [3]: 580000 M⁻¹ s⁻¹; Kd [6]: 1.32 nM; koff [6]: 0.000316 s⁻¹; kon [6]: 239000 M⁻¹ s⁻¹; Kd [9]: 2.18 nM; koff [9]: 0.000597 s⁻¹; kon [9]: 274000 M⁻¹ s⁻¹ | B1
2 | 5.13 | 0.21 | 0.82 | 0.33 | 0.51 | 0.63 | 0.55 | 0.461 | 380 | 0.0182 | 47900 | 0.634 | 0.000593 | 934000 | 1.34 | 0.000484 | 361000 | Kd [12]: 1.13 nM; koff [12]: 0.000291 s⁻¹; kon [12]: 258000 M⁻¹ s⁻¹ | B2
3 |  |  |  |  |  |  |  | 0.451 | 244 | 0.0167 | 64800 | 0.382 | 0.00041 | 1.07e+06 | 0.722 | 0.000332 | 461000 |  | B3
